We go through 167 variants from the RNAGym collection of RNA variant scans (doi:10.7554/elife.80360).

The chains are these.
B1: HDV Ribozyme (parent)
chain: GGCCGGCAUGGUCCCAGCCUCCUCGCUGGCGCCGGCUGGGCAACAUUCCGAGGGGACCGUCCCCUCGGUAAUGGCGAAUGGGACCCA

This data set covers variants of B1. In words: self-cleavage, relative activity (ratio to wild type); higher = more cleavage; co-transcriptional.
With G34U U47A, the self-cleavage came out at 0.128.
On to C33U C49U, for which the self-cleavage is 1.06.
Turning to C33U A77G, the self-cleavage came out at 0.554.
Take C33U A77U: the self-cleavage was determined as 0.439.
Next, G34A G68C: 0.0978.
Next, G34A G68U: 0.171; G34A G68A: 0.144.
Next, G34C G73C: 0.17.
In the case of G34C G73A, the self-cleavage was found to be 0.106.
Regarding G34U A87G, the self-cleavage worked out at 0.122.
Next, G34U A87U: 0.141; G34U A87C: 0.119.
On to G34C C57A, for which the self-cleavage worked out at 0.288.
Next, G34C G82A: 0.0308.
Regarding G34C G82U, the self-cleavage was found to be 0.0652.
With G34C C63G, the self-cleavage was 0.0378.
Regarding G34C C63A, the self-cleavage was found to be 0.166.
As to G34A U46A, the self-cleavage came to 0.121.
With G34A G52C, the self-cleavage came to 0.0545.
Then G34A G52U, with 0.143.
G34A G52A: the self-cleavage came out at 0.286.
Then C33U U69C, with 0.956; and C33U U69G, with 0.807.
G34U G55A: the self-cleavage worked out at 0.114.
Next, G34U G55C: 0.102; G34C C75U: 0.0405; G34C C75A: 0.131.
For the variant G34C C75G, the self-cleavage was 0.131.
As for G34A U72C, the self-cleavage amounted to 0.0692.
As to G34A U72G, the self-cleavage came to 0.0326.
Take G34C U47C: the self-cleavage came out at 0.185.
With G35A A56U, the self-cleavage came to 0.72.
Turning to G34C C84A, the self-cleavage was 0.
For G34C C84G, the self-cleavage was determined as 0.166.
For G34A G53U, the self-cleavage came out at 0.17.
Then G34A G53C, with 0.215.
On to C33G U69C, for which the self-cleavage came to 0.277.
Turning to C33G U69A, the self-cleavage is 0.201.
Then G34A G80U, with 0.0903.
As for G34A G80C, the self-cleavage is 0.0819.
As for G35A A70G, the self-cleavage was 0.491.
In the case of G35A A70C, the self-cleavage turned out to be 0.434.
With G34A U37G, the self-cleavage came to 0.219.
In the case of G34U C63A, the self-cleavage amounted to 0.164.
Consider G34U C63U, for which the self-cleavage is 0.166.
On to G34U A70G, for which the self-cleavage worked out at 0.0997.
G34U A70U: the self-cleavage came out at 0.182.
Turning to G34U A70C, the self-cleavage is 0.17.
C33U G80C: the self-cleavage came out at 0.143.
Turning to C33U, the self-cleavage is 0.847.
G34C C64U: the self-cleavage was 0.271.
Then G34C C64G, with 0.306.
Turning to G35A A78G, the self-cleavage came out at 0.138.
On to G35A A78U, for which the self-cleavage came out at 0.253.
Then G34C A56U, with 0.277; and G34U U46A, with 0.0639; and G34U A45G, with 0.0652.
Regarding G34U A45C, the self-cleavage was 0.117.
On to G34A G38U, for which the self-cleavage was found to be 0.138.
As to G34U C44U, the self-cleavage was 0.0241.
On to G34U C44G, for which the self-cleavage amounted to 0.173.
On to G34C A87C, for which the self-cleavage came out at 0.224.
For G34C A87U, the self-cleavage was found to be 0.192.
Next, G34C A87G: 0.089; G34C A45G: 0.147.
Take G34U C86A: the self-cleavage is 0.325.
Next, G34U C86U: 0.187.
In the case of G34U C86G, the self-cleavage was 0.205.
Turning to G34A G54C, the self-cleavage turned out to be 0.151.
Regarding G34A G54U, the self-cleavage was 0.17.
Then G34C G53U, with 0.163; and G34C A43C, with 0.364; and G34C A43U, with 0.
G34C C62U: the self-cleavage worked out at 0.262.
Take G34C C62A: the self-cleavage worked out at 0.162.
Consider G34U U60G, for which the self-cleavage was found to be 0.166.
Then G34U U60A, with 0.0817.
Consider G34U U60C, for which the self-cleavage stood at 0.175.
G34U C57U: the self-cleavage amounted to 0.174.
Next, G34A C66G: 0.138.
On to G34U C61U, for which the self-cleavage was found to be 0.208.
With G34U C61G, the self-cleavage amounted to 0.378.
On to C33U C84A, for which the self-cleavage worked out at 0.65.
With C33U C84U, the self-cleavage stood at 0.479.
Take C33U C84G: the self-cleavage is 0.628.
Then G34C U79G, with 0.0615; and G34C U65C, with 0.573.
Consider G34A A83U, for which the self-cleavage is 0.0831.
For the variant C33U A43C, the self-cleavage came out at 0.248.
Next, C33U A43G: 0.227; C33U A43U: 0.356.
Then G34C G52C, with 0.267.
Turning to G34C G52U, the self-cleavage came to 0.155.
For the variant G34A C86U, the self-cleavage came to 0.176.
For G34A C86G, the self-cleavage stood at 0.121.
Regarding G34U A43G, the self-cleavage was 0.0978.
With G34U A43U, the self-cleavage was 0.104.
Consider G34U A43C, for which the self-cleavage came out at 0.243.
G34U G40C: the self-cleavage is 0.0415.
As to G34U G40A, the self-cleavage is 0.0542.
Then G34A A42U, with 0.0326; and G34A A42C, with 0.0354.
As to G34A A42G, the self-cleavage stood at 0.178.
On to G34C A42G, for which the self-cleavage amounted to 0.0554.
Take G34C A42U: the self-cleavage was determined as 0.262.
Regarding G34A A43U, the self-cleavage stood at 0.
As for G34A A43C, the self-cleavage was determined as 0.119.
Turning to G34A A71C, the self-cleavage came to 0.0604.
Then G34U C36A, with 0.106; and G34U C36U, with 0.0482.
G34C G38C: the self-cleavage is 0.122.
Regarding G34C G38A, the self-cleavage worked out at 0.0959.
Next, G34C G38U: 0.0378; G34U C58A: 0.111; G34U C58G: 0.0811.
For the variant G34C C86G, the self-cleavage is 0.19.
With G34C C86U, the self-cleavage stood at 0.237.
As to G34C U46C, the self-cleavage worked out at 0.332.
Take G34A G67U: the self-cleavage came out at 0.0811.
Then G34A G67C, with 0.0707; and G34A G67A, with 0.104.
For the variant G34C C44G, the self-cleavage amounted to 0.0332.
Next, G34U A83G: 0.169; G34A C36U: 0.0623.
With C33U C64A, the self-cleavage is 0.591.
For C33U C64U, the self-cleavage is 0.785.
With G34A G81U, the self-cleavage was found to be 0.07.
Then G34A G39A, with 0.198; and C33U G40A, with 1.06; and C33U G40C, with 0.286.
Regarding G34U A56C, the self-cleavage came to 0.219.
In the case of C33U A45C, the self-cleavage came to 0.494.
For C33U A45G, the self-cleavage turned out to be 0.886.
Take G34A U79C: the self-cleavage is 0.0773.
For G34A U79G, the self-cleavage turned out to be 0.0875.
G34A U79A: the self-cleavage was 0.0755.
With G34U C75A, the self-cleavage was 0.107.
On to G34U C75U, for which the self-cleavage came out at 0.109.
G34U C75G: the self-cleavage is 0.214.
Take G34A A77G: the self-cleavage worked out at 0.0639.
G34A A77C: the self-cleavage came to 0.095.
Turning to C33U C85U, the self-cleavage is 0.831.
Next, C33U C85A: 0.831.
In the case of G34A A78G, the self-cleavage turned out to be 0.157.
As for G34A A78C, the self-cleavage was 0.157.
As for G34A G73C, the self-cleavage was determined as 0.147.
As to C33U G34A, the self-cleavage was 0.293.
As to C33U G34C, the self-cleavage was 0.0978.
For the variant G35A A51U, the self-cleavage is 0.496.
Next, G35A A51C: 0.467; C33U U79C: 0.325; C33U U79G: 0.429.
Then G34U G82C, with 0.138; and G34U G82U, with 0.0631.
Turning to G34C C41U, the self-cleavage was 0.0378.
Then G34C C41A, with 0.233; and G34U A42C, with 0.0963; and G34U A42U, with 0.252.
On to G35A A71C, for which the self-cleavage amounted to 0.125.
Consider G35A A71U, for which the self-cleavage came out at 0.389.
For G34A A87U, the self-cleavage came to 0.196.
In the case of G34U U79C, the self-cleavage was 0.201.
With G34U U79A, the self-cleavage worked out at 0.138.
For G34A C44A, the self-cleavage came to 0.089.
In the case of G34C C66A, the self-cleavage came out at 0.35.
Take G34C C66U: the self-cleavage worked out at 0.266.
For the variant G34C G68A, the self-cleavage is 0.0692.
